Source: patent publication US20250027068
Numbering of substitutions follows the chain as printed.

B1: PRT-292 (protein)
chain: MVTSVWTKGVTPPADFTQGEDVFHAPYDANQGWYDITKTFNGKDDLLCGAATAGNMLHWWFDQNKEYIEAYLKKHPEKQKIMFGDQELLDVRKAINTKGSQKNSELFNYFRDKAFPNLSARRLGVMPDLVLDMFINGYYLNVTKTQTTDVNRTYQEKDKRGGIFDAVFTRGDQSKLLTSRHDFKEKGLKEISDLIKQELTEGKALGLSHTYANVRISHVINLWGADFDSDGNLKAIYVTDSDSNASIGMKKYFVGVNSAGKVAISAKEIKEDNIGAQVLGLFTLSTGQDIWNQTN
B2: PRT-301 (protein)
chain: B1 chain with A14T, T17I, Q18K, N30G
B3: PRT-293 (protein)
chain: B1 chain with D28V, I216L, S217N, F253G
B4: PRT-300 (protein)
chain: B1 chain with A14T, T17I, Q18K, D28K, N30G, I216L, S217N, A259S
B5: PRT-294 (protein)
chain: B1 chain with F253G
B6: PRT-302 (protein)
chain: B1 chain with A14T, T17I, Q18K, D28K, N30G, I216L, S217N, F253G
B7: PRT-308 (protein)
chain: MQITSVWTKGVTPLTPEQFRENNEDVIHAPYLAHQGWYDITKAFDGKDNLLCGAATAGNMLHWWFDQNKTEIEAYLSKHPEKQKIIFNNQELFDLKAAIDTKDSQTNSQLFNYFRDKAFPNLSARQLGVMPDLVLDMFINGYYLNVGKTQSTDVNRPYQDKDKRGGIFDAVFTRGDQTTLLTARHDLKNKGLNDISTIIKQELTEGRALALSHTYANVSISHVINLWGADFDAEGNLEAIYVTDSDANASIGMKKYFVGRNAHGHVAISAKKIEGENIGAQVLGLFTLSLGKDIWQKLS
B8: PRT-310 (protein)
chain: B7 chain with N112D, G147F, L290S, I294Q
B9: PRT-309 (protein)
chain: B7 chain with N88G, N112D, L290S, I294Q
B10: PRT-284 (protein)
chain: MVTSVWTKGVTPPAKFTQGEDVFHAPYVANQGWYDITKTFNGKDDLLCGAATAGNMLHWWFDQNKEKIEAYLKKHPDKQKIMFGDQELLDVRKVINTKGDQTNSELFNYFRDKAFPNLSARRIGVMPDLVLDMFINGYYLNVYKTQTTDVNRTYQEKDRRGGIFDAVFTRGDQSKLLTSRHDFKEKNLKEISDLIKKELTEGKALGLSHTYANVRLNHVINLWGADFDSNGNLKAIYVTDSDSNASIGMKKYGVGVNSAGKVAISAKEIKEDNIGAQVLGLFTLSTGQDSWNQTN
B11: PRT-316 (protein)
chain: MTITSVWTKGVTPPTPEDFRKNNEDVLHAPYVANQGWYDITKTFDGKDNLLCGAATAGNMLHWWFDQNKEEIERYLKKHPEKQKIIFNNQELFDVKAAIDTKDSQTNSKLFNYFRDKAFPNLSARQLGVMPDLVLDMFINGYYLNLGKTQSTDVNRPYQDKDKRGGIFDAVFTRGDQTTLLTARHDLKNKGLNEISDLIKQELTEGKALALSHTYANVRINHVINLWGADFDAEGNLIAIYVTDSDANASIGMKKYFVGRNANGKVAISAKKIEGDNIGAQVLGLFTLSTGQDIWQKLS
B12: PRT-333 (protein)
chain: B11 chain with K21E, N88G, N121G, M130F, D176V, A249P
B13: PRT-325 (protein)
chain: B11 chain with K21E, N88G, N112D, N236E, A249P
B14: PRT-332 (protein)
chain: B11 chain with K21E, L92W, N121G, M130F, G147P, D176V, F257A, R260V
B15: PRT-324 (protein)
chain: B11 chain with K21E, N88G, A249P
B16: PRT-317 (protein)
chain: B11 chain with K21E, T290L
B17: PRT-268 (protein)
chain: MVTSVWTKGVTPPTDFIYGEDVLHAPYKAGQGWYDITKLFNGKDDLLCGAATAGNMLHWWFDQNKEQIENYLKKHPEKQKINFNGEQMFDVKEAIDTKDSQLDSKLFDYFKEKAFPNLSTKHLGVFPDHVIDMFINGYRLSLLNHGPTPVKRGSKDPRGGIFDAVFTRGDQSKLLTNRHDLKNKTLKEISDLIKQELTEGKALGISHTYANGRINHVINLWGADFDAEGNLEAIYVTDSDSNPSIGMKKYFVGVNSSGKVAISAKEIEEDNIGAQVLGLFTLSTGQDIWNQTN
B18: PRT-276 (protein)
chain: MVTSVWTKGVTPPTDFIYGEDVLHAPYKAGQGWYDITKTFNGKDNLLCGAATAGNMLHWWFDQNKEQIENYLKKHPEKQKIIFNNQELFDLKAAIDTKDSQLDSKLFEYFLEKAFPNLSTKHLGVFPDHVIDMFINGYRLSLLNHGPTPVKRGSKDKRGGIFDAVFTRGVQSKLLTNRHDLKNKTLKEISDLIKQELTEGKALGISHTYANVRINHVINLWGADFDAEGNLEAIAVTDSDTNASIGMKKYFVGVNSSGKVAISAKEIEEDNIGAQVLGLFTLSTGQDIWNQTN
B19: PRT-260 (protein)
chain: MVTSVWTKGVTPPTNFTYGEDVLHAPYVANQGWYDITKTFNGKDNLLCGAATAGNMLHWWFDQNKEQIENYLKKHPEKQKINFNGEQLFDVKEAIDTKDSQLDSKLFDYFKEKAFPNLSTKHLGVFPDHVIDMFINGYRLSLLNHGPTPVKRGSKDKRGGIFDAVFTRGVQSKLLTNRHDFKEKTLKEISDLIKQELTEGKALGISHTYANVRINHVINLWGADFDAEGNLEAIYVTDSDTNPSIGMKKYFVGVNSSGKVAISAKEIEEDNIGAQVLGLFTLSTGQDIWNQTN

Biological target: pooled human IgG (human IgG1,2,3 and 4)

Row | Protein | Enzyme Activity Endpoint Assay: Fab′2 | Enzyme Activity Endpoint Assay: Fc | Enzyme Activity Endpoint Assay: IgG | Enzyme Activity Endpoint Assay: scIgG | Enzyme Activity Endpoint Assay (purified): Fab'2 | Enzyme Activity Endpoint Assay (purified): Fc | Enzyme Activity Endpoint Assay (purified): IgG | Enzyme Activity Endpoint Assay (purified): scIgG
1 | B1 | 758 ng/µL | 359 ng/µL | 0 ng/µL | 0 ng/µL | – | – | – | –
2 | B2 | 0 ng/µL | 0 ng/µL | 1680 ng/µL | 0 ng/µL | – | – | – | –
3 | B3 | 11 ng/µL | 0 ng/µL | 1260 ng/µL | 0 ng/µL | – | – | – | –
4 | B4 | 333 ng/µL | 274 ng/µL | 276 ng/µL | 43 ng/µL | – | – | – | –
5 | B5 | – | – | – | – | 651 ng/µL | 456 ng/µL | 506 ng/µL | 5 ng/µL
6 | B6 | – | – | – | – | 1130 ng/µL | 461 ng/µL | 0 ng/µL | 0 ng/µL
7 | B7 | 405 ng/µL | 204 ng/µL | 59 ng/µL | 106 ng/µL | – | – | – | –
8 | B8 | – | – | – | – | 1220 ng/µL | 488 ng/µL | 0 ng/µL | 0 ng/µL
9 | B9 | 0 ng/µL | 0 ng/µL | 1650 ng/µL | 0 ng/µL | – | – | – | –
10 | B10 | 72 ng/µL | 184 ng/µL | 45 ng/µL | 483 ng/µL | – | – | – | –
11 | B11 | 772 ng/µL | 347 ng/µL | 80 ng/µL | 0 ng/µL | – | – | – | –
12 | B12 | – | – | – | – | 794 ng/µL | 448 ng/µL | 0 ng/µL | 0 ng/µL
13 | B13 | – | – | – | – | 930 ng/µL | 466 ng/µL | 78 ng/µL | 0 ng/µL
14 | B14 | 409 ng/µL | 277 ng/µL | 0 ng/µL | 177 ng/µL | – | – | – | –
15 | B15 | 665 ng/µL | 291 ng/µL | 0 ng/µL | 0 ng/µL | – | – | – | –
16 | B16 | 798 ng/µL | 453 ng/µL | 0 ng/µL | 0 ng/µL | – | – | – | –
17 | B17 | 429 ng/µL | 325 ng/µL | 90 ng/µL | 282 ng/µL | – | – | – | –
18 | B18 | 912 ng/µL | 383 ng/µL | 0 ng/µL | 0 ng/µL | – | – | – | –
19 | B19 | 793 ng/µL | 354 ng/µL | 0 ng/µL | 0 ng/µL | – | – | – | –
